± gives the uncertainty stated by the source.
B1: Homeobox protein cut-like 2, residues 895 to 963; numbered along this chain, O14529 (parent)
chain: EVDTLELTRQVKEKLAKNGICQRIFGEKVLGLSQGSVSDMLSRPKPWSKLTQKGREPFIRMQLWLSDQL

Variants of: B1
Experiment: abundance fitness (aPCA) (normalised: wild type 0, dead -1); higher = more abundant; growth selection in yeast, the domain comes from the species named
Settings: Homo sapiens

| Variant | abundance fitness |
| --- | --- |
| EVDTLELTRQVKEKLPKNGICQRIFGEKVLGLSQGSVSDMLSRPKPWSKLTQKGREPFIRMQLWLSDQL [A16P] | -0.18 ± 0.038 |
| EVDTLELTRQVKEKLSKNGICQRIFGEKVLGLSQGSVSDMLSRPKPWSKLTQKGREPFIRMQLWLSDQL [A16S] | 0.008 ± 0.038 |
| EVDTLELTRQVKEKLRKNGICQRIFGEKVLGLSQGSVSDMLSRPKPWSKLTQKGREPFIRMQLWLSDQL [A16R] | 0.036 ± 0.031 |
| EVDTLELTRQVKEKLYKNGICQRIFGEKVLGLSQGSVSDMLSRPKPWSKLTQKGREPFIRMQLWLSDQL [A16Y] | -0.234 ± 0.1 |
| EVDTLELTRQVKEKLQKNGICQRIFGEKVLGLSQGSVSDMLSRPKPWSKLTQKGREPFIRMQLWLSDQL [A16Q] | -0.063 ± 0.044 |
| EVDTLELTRQVKEKLEKNGICQRIFGEKVLGLSQGSVSDMLSRPKPWSKLTQKGREPFIRMQLWLSDQL [A16E] | -0.1 ± 0.044 |
| EVDTLELTRQVKEKLKKNGICQRIFGEKVLGLSQGSVSDMLSRPKPWSKLTQKGREPFIRMQLWLSDQL [A16K] | 0.001 ± 0.051 |
| EVDTLELTRQVKEKLLKNGICQRIFGEKVLGLSQGSVSDMLSRPKPWSKLTQKGREPFIRMQLWLSDQL [A16L] | -0.109 ± 0.028 |
| EVDTLELTRQVKEKLTKNGICQRIFGEKVLGLSQGSVSDMLSRPKPWSKLTQKGREPFIRMQLWLSDQL [A16T] | -0.062 ± 0.04 |
| EVDTLELTRQVKEKLDKNGICQRIFGEKVLGLSQGSVSDMLSRPKPWSKLTQKGREPFIRMQLWLSDQL [A16D] | -0.055 ± 0.067 |
| EVDTLELTRQVKEKLNKNGICQRIFGEKVLGLSQGSVSDMLSRPKPWSKLTQKGREPFIRMQLWLSDQL [A16N] | -0.189 ± 0.15 |
| EVDTLELTRQVKEKLCKNGICQRIFGEKVLGLSQGSVSDMLSRPKPWSKLTQKGREPFIRMQLWLSDQL [A16C] | -0.106 ± 0.077 |
| EVDTLELTRQVKEKLFKNGICQRIFGEKVLGLSQGSVSDMLSRPKPWSKLTQKGREPFIRMQLWLSDQL [A16F] | -0.198 ± 0.058 |
| EVDTLELTRQVKEKLIKNGICQRIFGEKVLGLSQGSVSDMLSRPKPWSKLTQKGREPFIRMQLWLSDQL [A16I] | -0.313 ± 0.079 |
| EVDTLELTRQVKEKLMKNGICQRIFGEKVLGLSQGSVSDMLSRPKPWSKLTQKGREPFIRMQLWLSDQL [A16M] | -0.048 ± 0.037 |
| EVDTLELTRQVKEKLAPNGICQRIFGEKVLGLSQGSVSDMLSRPKPWSKLTQKGREPFIRMQLWLSDQL [K17P] | -0.411 ± 0.092 |
| EVDTLELTRQVKEKLASNGICQRIFGEKVLGLSQGSVSDMLSRPKPWSKLTQKGREPFIRMQLWLSDQL [K17S] | -0.208 ± 0.051 |
| EVDTLELTRQVKEKLAMNGICQRIFGEKVLGLSQGSVSDMLSRPKPWSKLTQKGREPFIRMQLWLSDQL [K17M] | -0.09 ± 0.039 |
| EVDTLELTRQVKEKLAANGICQRIFGEKVLGLSQGSVSDMLSRPKPWSKLTQKGREPFIRMQLWLSDQL [K17A] | -0.086 ± 0.046 |
| EVDTLELTRQVKEKLAINGICQRIFGEKVLGLSQGSVSDMLSRPKPWSKLTQKGREPFIRMQLWLSDQL [K17I] | -0.292 ± 0.066 |

| Variant | abundance fitness |
| --- | --- |
| EVDTLELTRQVKEKLAWNGICQRIFGEKVLGLSQGSVSDMLSRPKPWSKLTQKGREPFIRMQLWLSDQL [K17W] | -0.269 ± 0.053 |
| EVDTLELTRQVKEKLAQNGICQRIFGEKVLGLSQGSVSDMLSRPKPWSKLTQKGREPFIRMQLWLSDQL [K17Q] | 0 ± 0.051 |
| EVDTLELTRQVKEKLALNGICQRIFGEKVLGLSQGSVSDMLSRPKPWSKLTQKGREPFIRMQLWLSDQL [K17L] | -0.087 ± 0.029 |
| EVDTLELTRQVKEKLARNGICQRIFGEKVLGLSQGSVSDMLSRPKPWSKLTQKGREPFIRMQLWLSDQL [K17R] | -0.089 ± 0.055 |
| EVDTLELTRQVKEKLAYNGICQRIFGEKVLGLSQGSVSDMLSRPKPWSKLTQKGREPFIRMQLWLSDQL [K17Y] | -0.276 ± 0.076 |
| EVDTLELTRQVKEKLAHNGICQRIFGEKVLGLSQGSVSDMLSRPKPWSKLTQKGREPFIRMQLWLSDQL [K17H] | -0.382 ± 0.093 |
| EVDTLELTRQVKEKLAFNGICQRIFGEKVLGLSQGSVSDMLSRPKPWSKLTQKGREPFIRMQLWLSDQL [K17F] | -0.267 ± 0.056 |
| EVDTLELTRQVKEKLAGNGICQRIFGEKVLGLSQGSVSDMLSRPKPWSKLTQKGREPFIRMQLWLSDQL [K17G] | -0.234 ± 0.043 |
| EVDTLELTRQVKEKLADNGICQRIFGEKVLGLSQGSVSDMLSRPKPWSKLTQKGREPFIRMQLWLSDQL [K17D] | -0.175 ± 0.05 |
| EVDTLELTRQVKEKLANNGICQRIFGEKVLGLSQGSVSDMLSRPKPWSKLTQKGREPFIRMQLWLSDQL [K17N] | -0.011 ± 0.074 |
| EVDTLELTRQVKEKLACNGICQRIFGEKVLGLSQGSVSDMLSRPKPWSKLTQKGREPFIRMQLWLSDQL [K17C] | -0.2 ± 0.083 |
| EVDTLELTRQVKEKLAVNGICQRIFGEKVLGLSQGSVSDMLSRPKPWSKLTQKGREPFIRMQLWLSDQL [K17V] | -0.169 ± 0.027 |
| EVDTLELTRQVKEWLAKNGICQRIFGEKVLGLSQGSVSDMLSRPKPWSKLTQKGREPFIRMQLWLSDQL [K14W] | -0.094 ± 0.091 |
| EVDTLELTRQVKETLAKNGICQRIFGEKVLGLSQGSVSDMLSRPKPWSKLTQKGREPFIRMQLWLSDQL [K14T] | 0.077 ± 0.069 |
| EVDTLELTRQVKESLAKNGICQRIFGEKVLGLSQGSVSDMLSRPKPWSKLTQKGREPFIRMQLWLSDQL [K14S] | -0.154 ± 0.057 |
| EVDTLELTRQVKEYLAKNGICQRIFGEKVLGLSQGSVSDMLSRPKPWSKLTQKGREPFIRMQLWLSDQL [K14Y] | -0.045 ± 0.068 |
| EVDTLELTRQVKERLAKNGICQRIFGEKVLGLSQGSVSDMLSRPKPWSKLTQKGREPFIRMQLWLSDQL [K14R] | -0.062 ± 0.067 |
| EVDTLELTRQVKEVLAKNGICQRIFGEKVLGLSQGSVSDMLSRPKPWSKLTQKGREPFIRMQLWLSDQL [K14V] | -0.03 ± 0.037 |
| EVDTLELTRQVKEQLAKNGICQRIFGEKVLGLSQGSVSDMLSRPKPWSKLTQKGREPFIRMQLWLSDQL [K14Q] | -0.012 ± 0.036 |

Source: the Human Domainome abundance scans (Beltran et al. 2025)
